Measured values taken from paper PMC3706335, “Biophysical characterization and crystal structure of the Feline Immunodeficiency Virus p15 matrix protein” (Retrovirology, 2013).
Residue numbers refer to the chain shown, from its start.

B1: FIV p15 matrix protein, full-length, with C-terminal 6-His tag (natural protein)
chain: MGNGQGRDWKMAIKRCSNVAVGVGGKSKKFGEGNFRWAIRMANVSTGREPGDIPETLDQLRLVICDLQERREKFGSSKEIDMAIVTLKVFAVAGLLNMTVSTAAAAENMYSQMGLDTRPSMKEAGGKEEGPPQAY
notes: matrix protein p15, the N-terminal subunit of the Gag polyprotein of Feline Immunodeficiency Virus, Petaluma strain (plasmid FIV-34TF10); not myristoylated; also called p15-His; full-length p15; not shown: His6, C-terminal, kept
B2: FIV p15-Δ120, C-terminal-truncated p15 (truncated after Ser120) with C-terminal 6-His tag (domain or fragment)
chain: MGNGQGRDWKMAIKRCSNVAVGVGGKSKKFGEGNFRWAIRMANVSTGREPGDIPETLDQLRLVICDLQERREKFGSSKEIDMAIVTLKVFAVAGLLNMTVSTAAAAENMYSQMGLDTRPS
notes: matrix protein p15 of the Gag polyprotein of Feline Immunodeficiency Virus, Petaluma strain, truncated after Ser120 (lacks the last 14 residues); residues 2 to 120 seen in the crystal; also called truncated FIV p15; not shown: His6, C-terminal, kept
B3: FIV p15-Δ120-R40S (domain or fragment)
chain: B2 chain with R40S
notes: matrix protein p15 of the Gag polyprotein of Feline Immunodeficiency Virus, truncated after Ser120 as m3, with Arg40 mutated to serine; Made from the truncated p15 construct

How the values were obtained:
[1] = molecular target: the molecule itself; assay: ITC; dilution experiment, dimer to monomers: p15 at 6 mg/ml (375 μM) in 50 mM MES pH 6 injected into buffer alone, 25°C, dimer dissociation model
[2] = molecular target: the molecule itself; assay: SEC-MALS; 0.2 ml of his-tagged p15 at 6 mg/ml in 50 mM MES pH 6 on Superdex 200 10/30 in 50 mM MES pH 6
[3] = molecular target: the molecule itself; assay: cross-linking; BS3, room temperature, SDS-PAGE; protein at 6 mg/ml in 50 mM MES pH 6

Protein	Kd [1] [µM]	stoichiometry N [2]	binding result [3]
B1	~10	2	–
B2	–	–	binds
B3	–	–	binds
